# Residue numbers refer to the chain shown, from its start.
# B1: CAP256-VRC26.26 (antibody, V domains shown)
# VH: EVQLVESGGGIVQPGRSLTLSCVASQFAFSHYGMHWVRQAPGKGLEWVASISRDETKKYHGDSVWDRFSISRDNSKNTLFLQMNSLRAEDTALYFCVRDQREDECEEWWSDYYDFGKELPCRKFRGLGLAGIFDVWGHGTMVIVSS
# VL: QSALTQPPSVSAAPGQKVSISCSGNNSNIGNNFISWFQQFPGTAPKPLIYETYKRHSGIPDRFSGSKSGTSATLAITGLQTGDEADYYCATWGVRQGVGALFGTGTKVTVLG
# B2: CAP256-VRC26.27 (antibody, V domains shown)
# VH: QKQLVESGGGVVQPGRSLTLSCAASQFPFSHYGMHWVRQAPGKGLEWVASITNDGTKKYHGESVWDRFRISRDNSKNTLFLQMNSLRAEDTALYFCVRDQREDECEEWWSDYYDFGKELPCRKFRGLGLAGIFDIWGHGTMVIVSS
# VL: B1 VL with A3V, K54R
# Tests used:
# Experiment in all cases: cell-based or functional assay
# [1] = molecular target: HIV-1 Env of Q23.17 (HIV-1)
# [2] = molecular target: HIV-1 Env of MB201 (HIV-1)
# [3] = molecular target: HIV-1 Env of ZM135.10a (HIV-1)
# [4] = molecular target: HIV-1 Env of MB539.2B7 (HIV-1)
# [5] = molecular target: HIV-1 Env of ZM233.6 (HIV-1)
# [6] = molecular target: HIV-1 Env of REJO.67 (HIV-1)
# [7] = molecular target: HIV-1 Env of BG505.w6m (HIV-1)
# [8] = molecular target: HIV-1 Env of KER2018.11 (HIV-1)
# [9] = molecular target: HIV-1 Env of CAP256.SU (HIV-1)
# [10] = molecular target: HIV-1 Env of ZM53.12 (HIV-1)
# [11] = molecular target: HIV-1 Env of CAAN.A2 (HIV-1)
# [12] = molecular target: HIV-1 Env of KER2008.12 (HIV-1)
# [13] = molecular target: HIV-1 Env of CAP244.D3 (HIV-1)
# [14] = molecular target: HIV-1 Env of Q769.d22 (HIV-1)
# [15] = molecular target: HIV-1 Env of 6405.v4.c34 (HIV-1)
# [16] = molecular target: HIV-1 Env of ZM249.1 (HIV-1)
# [17] = molecular target: HIV-1 Env of Q842.d12 (HIV-1)
# [18] = molecular target: HIV-1 Env of 6535.3 (HIV-1)
# [19] = molecular target: HIV-1 Env of ZM214.15 (HIV-1)
# [20] = molecular target: HIV-1 Env of 0260.v5.c36 (HIV-1)
# [21] = molecular target: HIV-1 Env of TH976.17 (HIV-1)
# [22] = molecular target: HIV-1 Env of AC10.29 (HIV-1)
# [23] = molecular target: HIV-1 Env of DU156.12 (HIV-1)
# [24] = molecular target: HIV-1 Env of TRO.11 (HIV-1)
# [25] = molecular target: HIV-1 Env of DU172.17 (HIV-1)
# [26] = molecular target: HIV-1 Env of CNE3 (HIV-1)
# [27] = molecular target: HIV-1 Env of RW020.2 (HIV-1)
# [28] = molecular target: HIV-1 Env of UG037.8 (HIV-1)
# [29] = molecular target: HIV-1 Env of 96ZM651.02 (HIV-1)
# [30] = molecular target: HIV-1 Env of Q259.d2.17 (HIV-1)
# [31] = molecular target: HIV-1 Env of Q168.a2 (HIV-1)
# [32] = molecular target: HIV-1 Env of ZM109.4 (HIV-1)
# [33] = molecular target: HIV-1 Env of DU422.01 (HIV-1)
# [34] = molecular target: HIV-1 Env of PVO.04 (HIV-1)
# [35] = molecular target: HIV-1 Env of C1080.c3 (HIV-1)
# [36] = molecular target: HIV-1 Env of SC422.8 (HIV-1)
# [37] = molecular target: HIV-1 Env of QH0692.42 (HIV-1)
# [38] = molecular target: HIV-1 Env of CAP210.E8 (HIV-1)
# [39] = molecular target: HIV-1 Env of CM244.ec1 (HIV-1)
# [40] = molecular target: HIV-1 Env of CAP45.G3 (HIV-1)
# [41] = molecular target: HIV-1 Env of ZM197.7 (HIV-1)
# [42] = molecular target: HIV-1 Env of CAP256.PI (HIV-1)
# [43] = molecular target: HIV-1 Env of THRO.18 (HIV-1)
# [44] = molecular target: HIV-1 Env of TRJO.58 (HIV-1)
# [45] = molecular target: HIV-1 Env of 3016.V5.c36 (HIV-1)
# [46] = molecular target: HIV-1 Env of Q461.e2 (HIV-1)
# [47] = molecular target: HIV-1 Env of RHPA.7 (HIV-1)
# [48] = molecular target: HIV-1 Env of WITO.33 (HIV-1)
binder,measurement,setting,value
B1,"IC50 (neutralization, TZM-bl)",[1],> 50 µg/mL
same,"IC50 (neutralization, TZM-bl)",[2],> 50 µg/mL
same,"IC50 (neutralization, TZM-bl)",[3],> 50 µg/mL
same,"IC50 (neutralization, TZM-bl)",[4],0.634 µg/mL
same,"IC50 (neutralization, TZM-bl)",[5],0.001 µg/mL
same,"IC50 (neutralization, TZM-bl)",[6],> 50 µg/mL
same,"IC50 (neutralization, TZM-bl)",[7],0.066 µg/mL
same,"IC50 (neutralization, TZM-bl)",[8],0.001 µg/mL
same,"IC50 (neutralization, TZM-bl)",[9],0.003 µg/mL
same,"IC50 (neutralization, TZM-bl)",[10],0.001 µg/mL
same,"IC50 (neutralization, TZM-bl)",[11],> 50 µg/mL
same,"IC50 (neutralization, TZM-bl)",[12],> 50 µg/mL
same,"IC50 (neutralization, TZM-bl)",[13],36.6 µg/mL
same,"IC50 (neutralization, TZM-bl)",[14],> 50 µg/mL
same,"IC50 (neutralization, TZM-bl)",[15],> 50 µg/mL
same,"IC50 (neutralization, TZM-bl)",[16],0.023 µg/mL
same,"IC50 (neutralization, TZM-bl)",[17],17.1 µg/mL
same,"IC50 (neutralization, TZM-bl)",[18],> 50 µg/mL
same,"IC50 (neutralization, TZM-bl)",[19],14.1 µg/mL
same,"IC50 (neutralization, TZM-bl)",[20],0.78 µg/mL
same,"IC50 (neutralization, TZM-bl)",[21],> 50 µg/mL
same,"IC50 (neutralization, TZM-bl)",[22],> 50 µg/mL
same,"IC50 (neutralization, TZM-bl)",[23],0.013 µg/mL
same,"IC50 (neutralization, TZM-bl)",[24],> 50 µg/mL
same,"IC50 (neutralization, TZM-bl)",[25],0.5 µg/mL
same,"IC50 (neutralization, TZM-bl)",[26],> 50 µg/mL
same,"IC50 (neutralization, TZM-bl)",[27],> 50 µg/mL
same,"IC50 (neutralization, TZM-bl)",[28],> 50 µg/mL
same,"IC50 (neutralization, TZM-bl)",[29],0.111 µg/mL
same,"IC50 (neutralization, TZM-bl)",[30],0.011 µg/mL
same,"IC50 (neutralization, TZM-bl)",[31],0.005 µg/mL
same,"IC50 (neutralization, TZM-bl)",[32],0.025 µg/mL
same,"IC50 (neutralization, TZM-bl)",[33],0.08 µg/mL
same,"IC50 (neutralization, TZM-bl)",[34],0.562 µg/mL
same,"IC50 (neutralization, TZM-bl)",[35],0.016 µg/mL
same,"IC50 (neutralization, TZM-bl)",[36],1.74 µg/mL
same,"IC50 (neutralization, TZM-bl)",[37],> 50 µg/mL
same,"IC50 (neutralization, TZM-bl)",[38],0.007 µg/mL
same,"IC50 (neutralization, TZM-bl)",[39],0.047 µg/mL
same,"IC50 (neutralization, TZM-bl)",[40],0.08 µg/mL
same,"IC50 (neutralization, TZM-bl)",[41],0.011 µg/mL
same,"IC50 (neutralization, TZM-bl)",[42],> 50 µg/mL
same,"IC50 (neutralization, TZM-bl)",[43],0.667 µg/mL
same,"IC50 (neutralization, TZM-bl)",[44],> 50 µg/mL
same,"IC50 (neutralization, TZM-bl)",[45],0.022 µg/mL
same,"IC50 (neutralization, TZM-bl)",[46],0.024 µg/mL
same,"IC50 (neutralization, TZM-bl)",[47],> 50 µg/mL
same,"IC50 (neutralization, TZM-bl)",[48],> 50 µg/mL
B2,"IC50 (neutralization, TZM-bl)",[1],> 50 µg/mL
same,"IC50 (neutralization, TZM-bl)",[2],> 50 µg/mL
same,"IC50 (neutralization, TZM-bl)",[3],> 50 µg/mL
same,"IC50 (neutralization, TZM-bl)",[4],1.15 µg/mL
same,"IC50 (neutralization, TZM-bl)",[5],< 0.0006 µg/mL
same,"IC50 (neutralization, TZM-bl)",[6],> 50 µg/mL
same,"IC50 (neutralization, TZM-bl)",[7],0.102 µg/mL
same,"IC50 (neutralization, TZM-bl)",[8],0.001 µg/mL
same,"IC50 (neutralization, TZM-bl)",[9],< 0.0006 µg/mL
same,"IC50 (neutralization, TZM-bl)",[10],< 0.0006 µg/mL
same,"IC50 (neutralization, TZM-bl)",[11],> 50 µg/mL
same,"IC50 (neutralization, TZM-bl)",[12],11.3 µg/mL
same,"IC50 (neutralization, TZM-bl)",[13],> 50 µg/mL
same,"IC50 (neutralization, TZM-bl)",[14],> 50 µg/mL
same,"IC50 (neutralization, TZM-bl)",[15],> 50 µg/mL
same,"IC50 (neutralization, TZM-bl)",[16],0.004 µg/mL
same,"IC50 (neutralization, TZM-bl)",[17],10.6 µg/mL
same,"IC50 (neutralization, TZM-bl)",[18],> 50 µg/mL
same,"IC50 (neutralization, TZM-bl)",[19],3.86 µg/mL
same,"IC50 (neutralization, TZM-bl)",[20],2.1 µg/mL
same,"IC50 (neutralization, TZM-bl)",[21],> 50 µg/mL
same,"IC50 (neutralization, TZM-bl)",[22],> 50 µg/mL
same,"IC50 (neutralization, TZM-bl)",[23],0.006 µg/mL
same,"IC50 (neutralization, TZM-bl)",[24],> 50 µg/mL
same,"IC50 (neutralization, TZM-bl)",[25],4.36 µg/mL
same,"IC50 (neutralization, TZM-bl)",[26],> 50 µg/mL
same,"IC50 (neutralization, TZM-bl)",[27],> 50 µg/mL
same,"IC50 (neutralization, TZM-bl)",[28],> 50 µg/mL
same,"IC50 (neutralization, TZM-bl)",[29],0.047 µg/mL
same,"IC50 (neutralization, TZM-bl)",[30],0.005 µg/mL
same,"IC50 (neutralization, TZM-bl)",[31],0.003 µg/mL
same,"IC50 (neutralization, TZM-bl)",[32],0.027 µg/mL
same,"IC50 (neutralization, TZM-bl)",[33],0.015 µg/mL
same,"IC50 (neutralization, TZM-bl)",[34],0.371 µg/mL
same,"IC50 (neutralization, TZM-bl)",[35],0.149 µg/mL
same,"IC50 (neutralization, TZM-bl)",[36],4.86 µg/mL
same,"IC50 (neutralization, TZM-bl)",[37],> 50 µg/mL
same,"IC50 (neutralization, TZM-bl)",[38],0.002 µg/mL
same,"IC50 (neutralization, TZM-bl)",[39],0.056 µg/mL
same,"IC50 (neutralization, TZM-bl)",[40],0.025 µg/mL
same,"IC50 (neutralization, TZM-bl)",[41],0.004 µg/mL
same,"IC50 (neutralization, TZM-bl)",[42],> 50 µg/mL
same,"IC50 (neutralization, TZM-bl)",[43],1.23 µg/mL
same,"IC50 (neutralization, TZM-bl)",[44],> 50 µg/mL
same,"IC50 (neutralization, TZM-bl)",[45],0.006 µg/mL
same,"IC50 (neutralization, TZM-bl)",[46],0.014 µg/mL
same,"IC50 (neutralization, TZM-bl)",[47],> 50 µg/mL
same,"IC50 (neutralization, TZM-bl)",[48],> 50 µg/mL

# Source: patent US20200199204A1 (UNITED STATES OF AMERICA AS REPRESENTED BY THE SECRETARY …, published 2020)
